Molecular target: p300 (UniProt Q09472)
Test: not stated; comparator to the H-MAP-1 ELISA

Chain of p300 (Q09472 323-423 limits assumed): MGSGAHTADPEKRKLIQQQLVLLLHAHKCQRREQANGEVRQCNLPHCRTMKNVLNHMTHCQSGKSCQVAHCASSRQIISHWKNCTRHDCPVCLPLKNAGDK

With “native HIF1α protein (from UniProt Q16665 786-826)” the Kd was 0.38 nM.
